Drawing on patent US12201692B2, “Targeted protease compositions and uses related thereto” (Emory University, priority 2013, dated 2025), this text covers uPAR-targeting efficiency and solubility for one molecule.

For one data set, the target named is uPAR (Homo sapiens, UniProt Q03405). The data set is described as follows: uPAR-targeting efficiency of ATF fragment. The settings on record: in comparison with the full length ATF (135 aa).
Data set [1] can be described thus: Solubility of recombinant ATF fragments. Format: physicochemical. The settings on record: compared to ATF 135 aa. The source says:
The amino terminal fragment (ATF, 135 aa) of uPA was used as a target ligand to develop uPAR-targeted theranostic IONPs. The yield and purity of recombinant ATF from bacterial cultures have been less than optimal due to the formation of undesirable aggregates. By removing of the hydrophobic amino acids that promote the formation of aggregates, uPAR targeting ligands (39 and 68 aa) with receptor-binding peptide regions were engineered as improvements.
In comparison with the full length ATF (135 aa), this short uPAR targeted ligand is an improved candidate to engineer the fusion targeting ligand ATF68-MMP14 with dual uPAR targeting and MMP14 protease activity.

Entries after “also recorded” stand apart in the source; their conditions may differ.

Chain of uPAR (Q03405 23-305): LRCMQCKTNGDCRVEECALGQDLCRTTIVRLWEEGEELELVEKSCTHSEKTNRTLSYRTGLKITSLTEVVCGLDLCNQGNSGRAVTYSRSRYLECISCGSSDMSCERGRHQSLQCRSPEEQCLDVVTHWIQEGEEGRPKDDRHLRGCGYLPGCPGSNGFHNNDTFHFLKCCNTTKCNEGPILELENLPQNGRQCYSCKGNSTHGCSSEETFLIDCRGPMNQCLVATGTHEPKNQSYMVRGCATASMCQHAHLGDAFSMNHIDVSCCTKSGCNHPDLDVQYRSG

B1: ATF68: uPA-ATF with only the growth factor domain, 68 aa uPAR targeting ligand (SEQ ID NO:2) (protein)
chain: SNELHQVPSNCDCLNGGTCVSNKYFSNIHWCNCPKKFGGQHCEIDKSKTCYEGNGHFYRGKASTDTMG
For the molecule B1, the uPAR-targeting efficiency entry with uPAR is “higher uPAR-targeting efficiency”. Further, the solubility result in data set [1] is on record as “better solubility; also recorded: improved physiological solubility”.
